{"source": "patent US20060177831A1", "about": "(published 2006)", "binders": {"B1": {"name": "c-MET extracellular domain (ECD)/Fc chimera (Fc fusion, not shown: a dimerising Fc or GST)", "chain": "ECKEALAKSEMNVNMKYQLPNFTAETPIQNVILHEHHIFLGATNYIYVLNEEDLQKVAEYKTGPVLEHPDCFPCQDCSSKANLSGGVWKDNINMALVVDTYYDDQLISCGSVNRGTCQRHVFPHNHTADIQSEVHCIFSPQIEEPSQCPDCVVSALGAKVLSSVKDRFINFFVGNTINSSYFPDHPLHSISVRRLKETKDGFMFLTDQSYIDVLPEFRDSYPIKYVHAFESNNFIYFLTVQRETLDAQTFHTRIIRFCSINSGLHSYMEMPLECILTEKRKKRSTKKEVFNILQAAYVSKPGAQLARQIGASLNDDILFGVFAQSKPDSAEPMDRSAMCAFPIKYVNDFFNKIVNKNNVRCLQHFYGPNHEHCFNRTLLRNSSGCEARRDEYRTEFTTALQRVDLFMGQFSEVLLTSISTFIKGDLTIANLGTSEGRFMQVVVSRSGPSTPHVNFLLDSHPVSPEVIVEHTLNQNGYTLVITGKKITKIPLNGLGCRHFQSCSQCLSAPPFVQCGWCHDKCVRSEECLSGTWTQQICLPAIYKVFPNSAPLEGGTRLTICGWDFGFRRNNKFDLKKTRVLLGNESCTLTLSESTMNTLKCTVGPAMNKHFNMSIIISNGHGTTQYSTFSYVDPVITSISPKYGPMAGGTLLTLTGNYLNSGNSRHISIGGKTCTLKSVSNSILECYTPAQTISTEFAVKLKIDLANRETSIFSYREDPIVYEIHPTKSFISGGSTITGVGKNLNSVSVPRMVINVHEAGRNFTVACQHRSNSEIICCTTPSLQQLNLQLPLKTKAFFMLDGILSKYFDLIYVHNPVFKPFEKPVMISMGNENVLEIKGNDIDPEAVKGEVLKVGNKSCENIHLHSEAVLCTVPNDLLKLNSELNIEWKQAISSTVLGKVIVQPDQNFT"}}, "key": {"[1]": {"biological_target": "B1", "assay": "AlphaScreen competition with bn-HGF for c-MET ECD/Fc, NiNTA-pure"}, "[2]": {"biological_target": "B1", "assay": "binding ELISA on c-MET ECD/Fc, NiNTA-pure"}, "[3]": {"biological_target": "B1", "assay": "AlphaScreen competition with bn-HGF for c-MET ECD/Fc, Q-pure"}, "recombinant human HGF": {"biological_target": "recombinant human HGF (human, UniProt P14210 32-728)", "sequence (P14210 32-728 limits assumed)": "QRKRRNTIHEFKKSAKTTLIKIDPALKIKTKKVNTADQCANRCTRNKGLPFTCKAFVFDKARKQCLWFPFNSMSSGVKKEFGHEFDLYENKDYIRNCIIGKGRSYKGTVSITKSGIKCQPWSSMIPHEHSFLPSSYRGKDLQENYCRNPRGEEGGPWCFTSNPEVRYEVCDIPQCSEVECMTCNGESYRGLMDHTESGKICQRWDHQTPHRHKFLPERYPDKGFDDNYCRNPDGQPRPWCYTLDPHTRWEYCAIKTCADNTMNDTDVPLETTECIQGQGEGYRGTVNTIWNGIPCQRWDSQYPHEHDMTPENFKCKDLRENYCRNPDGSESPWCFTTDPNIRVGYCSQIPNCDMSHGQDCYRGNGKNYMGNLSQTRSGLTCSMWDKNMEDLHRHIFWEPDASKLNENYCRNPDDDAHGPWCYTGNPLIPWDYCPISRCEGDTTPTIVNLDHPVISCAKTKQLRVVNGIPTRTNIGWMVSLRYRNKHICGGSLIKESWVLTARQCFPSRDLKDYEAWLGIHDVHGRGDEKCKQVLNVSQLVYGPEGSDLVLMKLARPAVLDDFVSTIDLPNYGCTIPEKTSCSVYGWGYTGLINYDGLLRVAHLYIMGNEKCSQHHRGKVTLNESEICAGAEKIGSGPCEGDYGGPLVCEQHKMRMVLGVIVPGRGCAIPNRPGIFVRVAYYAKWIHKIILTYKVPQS", "assay": "cell-based or functional assay"}}}
{"binder": "CLADEFQCHSTKRCVPRHWLCDGVNDCEDGSDEKSCSQDPEFHKVSLQ (designed binder, Assayed protein also bears HA and 6His tags; also called C239)", "note": "[Anti-c-MET Avimer monomer M13]", "values": [{"measurement": "IC50", "setting": "[1]", "result": 0.247, "unit": "µM"}]}
{"binder": "CEADEFRCRSTGRCISVDWRCDGVSDCEDSSDEESCESTAPTSLQ (designed binder, Assayed protein also bears HA and 6His tags; also called C381)", "note": "[Anti-c-MET Avimer monomer M20]", "values": [{"measurement": "Kd", "setting": "[2]", "result": 0.158, "unit": "µM"}, {"measurement": "IC50", "setting": "[1]", "result": 0.022, "unit": "µM"}, {"measurement": "IC50", "setting": "[3]", "result": 0.186, "unit": "µM"}]}
{"binder": "CVSNEFTCRSTKRCVPQEWVCDGVNDCEDGSDETGCPKHTSLQ (designed binder, Assayed protein also bears HA and 6His tags; also called C382)", "note": "[Anti-c-MET Avimer monomer M21]", "values": [{"measurement": "Kd", "setting": "[2]", "result": 0.116, "unit": "µM"}, {"measurement": "IC50", "setting": "[1]", "result": 0.083, "unit": "µM"}]}
{"binder": "CVSNEFTCRSTKRCVPQEWVCDGVNDCEDGSDETGCPKHTSLQ (designed binder, Assayed protein also bears HA and 6His tags; also called C399)", "note": "[Anti-c-MET Avimer monomer M38]", "values": [{"measurement": "Kd", "setting": "[2]", "result": 0.095, "unit": "µM"}, {"measurement": "IC50", "setting": "[1]", "result": 0.05, "unit": "µM"}, {"measurement": "IC50", "setting": "[3]", "result": 0.881, "unit": "µM"}]}
{"binder": "B1", "values": [{"measurement": "IC50, inhibition of HGF-induced proliferation of serum-starved A549-SC cells (tritiated thymidine)", "setting": "recombinant human HGF", "result": 0.00173, "unit": "µM"}]}
